Patent US12012457 (SYNTHEKINE, dated 2024)

T1: extracellular domain of human IL23R (hIL23R ECD) (human, UniProt Q5VWK5 24-355)
T1 construct: also called hIL-23 ECD antigen
T1 sequence: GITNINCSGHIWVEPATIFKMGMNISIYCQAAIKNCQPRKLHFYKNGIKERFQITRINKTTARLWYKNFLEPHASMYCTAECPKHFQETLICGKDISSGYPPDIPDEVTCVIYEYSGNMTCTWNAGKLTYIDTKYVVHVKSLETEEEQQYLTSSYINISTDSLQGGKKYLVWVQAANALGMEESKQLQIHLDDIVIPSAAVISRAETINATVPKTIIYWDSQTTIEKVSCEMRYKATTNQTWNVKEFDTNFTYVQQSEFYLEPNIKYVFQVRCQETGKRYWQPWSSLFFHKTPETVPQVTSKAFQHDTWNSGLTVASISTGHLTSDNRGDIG

B1: hIL23R VHH13 (VHH)
VHH: QVQLQESGGGSVQAGGSLRLSCAASGYTYCSYDMKWYRQAPGKKREFVSAIDSDGSTSYADSVKGRFTISQDNAKNTVYLQMNSLKPEDTAMYYCKTEGTIPVGVCPNYWGQGTQVTVSS
B2: hIL23R VHH14 (VHH)
VHH: QVQLQESGGGLVQPGGSLRLSCAASGYTYCSYDMKWYRQAPGKKREFVSAIDSDGSTSYADSVKGRFTISQDNAKNTVYLQMNSLKPEDTAMYYCKTEGTVPVGVCPNYWGQGTQVTVSS
B3: hIL23R VHH8 (VHH)
VHH: QVQLQESGGDSVQAGGSLRLSCAASGYTYCSYDMKWYRQAPGKEREFVSGIDSDGSISYADSVKGRFTISQDNAKNTVYLQMNSLKPEDTAMYYCKTEGTIPVGACPNYWGQGTQVTVSS
B4: hIL23R VHH15 (VHH)
VHH: QVQLQESGGGSVQAGGSLRLSCAASPGTYTSRYMGWFRQAPGKEREGVATIWPAGGNTVYADSVKGRFTISQDGAKKTVYLQMNSLKPEDTAMYYCAAAKYGGTSLAPYTYNYWGQGTQVTVSS
B5: hIL23R VHH3 (VHH)
VHH: QVQLQESGGGSVQAGESLRLSCAASGYTYCTYDMTWYRQAPGKKREFVSGIHSDGTTSYADSVKGRFTISQDNAENTVYLQMNSLKPEDTAMYYCKTDPIATITRRCDSYWGQGTQVTVSS
B6: hIL23R VHH19 (VHH)
VHH: QVQLQESGGGSVQAGGSLRLSCAASGYTSCSYDMSWYRQAPGKKREFVSAIHSDGTTSYADSMKGRFTISQDNAKNTVYLQMNSLKPEDTAMYYCKTDPNYSDHVCPPYWGRGTQVTVSS
B7: hIL23R VHH12 (VHH)
VHH: QVQLQESGGGSVQAGGSLRLSCAASGYTSSSRCMGWFRQAPGKEREGVARIYTPTRTTWYADSVKGRFTISQDNAKNTVYLEMASLKPEDTAKYFCAAGASCAVDLFSYWGQGTQVTVSS
B8: hIL23R VHH10 (VHH)
VHH: QVQLQESGGGSVQAGGSLKLSCAASGYTYCNYDIAWYRQAPGKERKFVSAIASDGSTSYADSVKGRFTISQDNAKNTVYLQMNSLKPEDTAMYYCKTDPIATMTRRCDPYWGQGTQVTVSS
B9: hIL23R VHH7 (VHH)
VHH: QVQLQESGGGSVQAGGSLRLSCAASGYTYCNYDIAWYRQAPGKERKFVSAIASDGITSYADSVKGRFTISQDNAKNTVYLQMNSLKPEDTAMYYCKTDPISTITRICDPYWGQGTQVTVSS
B10: hIL23R VHH16 (VHH)
VHH: QVQLQESGGGSVEAGGALTLSCVASGYTYCNYDIAWYRQAPGKERKFVSAIASDGSTSYADSVKGRFTISQDNAKNTVYLQMNSLKPEDTAMYYCKTDPIATMTRRCDPYWGQGTQVTVSS
B11: hIL23R VHH18 (VHH)
VHH: QVQLQESGGGSVQAGGSLRLACAASGYTYCNYDIAWYRQAPGKERKFVSAIASDGSTSYADSVKGRFTISQDNAKNTVYLQMNSLKPEDTAMYYCKTDPIATMTRRCDPYWGQGTQVTVSS
B12: hIL23R VHH11 (VHH)
VHH: QVQLQESGGGSVQAGGSLRLSCAASGYTYCSYDMTWYRQAPGKKREFVSAIDSDGSTSYADSVKGRFTISQDNAKNTVYLQMNSLKPEDTAMYYCKTDPIATISRRCDSYWGQGTQVTVSS
B13: hIL23R VHH6 (VHH)
VHH: QVQLQESGGGLVQPGGSLRLSCAASGYTYCSYDMGWYRQAPGKKRKFVSSINSDGTTSYADSVKGRFTISQDNAKNTVYLQMNSLKPEDTAMYYCKTDPQTRPGKPCADYWGQGTQVTVSS
B14: hIL23R VHH9 (VHH)
VHH: QVQLQESGGGLVQAGGSLRLSCAASGYTYCSYDMSWYRQAPGKERKFVSSINSDGTTSYADSVKGRFTISQDNAKNTVYLQMNSLKPEDTAMYYCKTDPQTRPGKPCADYWGQGTQVTVSS
B15: hIL23R VHH2 (VHH)
VHH: QVQLQESGGGSVQAGGSLRLSCAASGYTYCSYDMSWYRQAPGKKREFVSSFNSDGSTSYADSVKGRFTISQDNAKNTVYLQMNSLKPEDTAMYYCKTDPHADWGAPCGGDYWGQGTQVTVSS
B16: hIL23R VHH4 (VHH)
VHH: QVQLQESGGGSVQAGGSLRLSCAASGSTYCTYDMTWYRQAPGKRREFVSAINSDGSTSYADSVKGRFTISQDNAKNTVYLQMNSLKPEDTAMYYCKTDPNSGWGAPCGGDYWGQGTQVTVSS
B17: hIL23R VHH17 (VHH)
VHH: QVQLQESGGGSVQAGGSLRLSCTASGYTFSTMKYMGWFRQAPGKEREGVAAIWIAAGNTYYADSVKGRFTISQDNTKNTVYLQMNSLKPEDTALYYCAAARYGFVPSTWYLPERYNYWGQGTQVTVSS
B18: hIL23R VHH1 (VHH)
VHH: QVQLQESGGGSVQAGGSLRLSCAASGYTYCSYDMSWYRQAPGKKREFVSAFNSDGTTSYADSVKGRFTISQDKAKNTVYLQMNSLKPEDTAMYYCKTDPHVQSSGGYCPPYWGQGTQVTVSS
B19: hIL23R VHH5 (VHH)
VHH: QVQLQESGGGSVQAGGSLRLSCAASGYTYCSYDMSWYRQAPGKKREFVSAIASDGSTSYADSLKGRFTISQDNAKNTVYLQMNSLKPEDTAMYYCKTDPHVQSSGGYCPPYWGQGTQVTVSS

target: T1, extracellular domain of human IL23R …; assay: periplasmic extract ELISA (PE-ELISA), 96-well plate, colorimetric

Binding result, binds:
B1, B2, B3, B4, B5, B6, B7, B8, B9, B10, B11, B12, B13, B14, B15, B16, B17, B18, B19
